Source: patent US20040248211A1, “ICAM-related protein” (priority 1992, published 2004)

What was measured:
Type in all cases: cell-based, human
[1] = test system: SKW3 T cells; test: Homotypic aggregation assay, SKW3; details: after four hours, Ig and Fab′ at 1 μg/ml
Experimental: Aggregation assays were done in duplicate, with and without addition of PMA (50 ng/ml). 3×10^5 cells in RPMI 1640 medium with 10% fetal calf serum were added in a flat-bottomed 96-well microtest plate. When one antibody was tested in an experiment, 50 μl of purified antibody or hybridoma supernatant were added to the wells (PMA was added at the same time to selected wells). When two antibodies were tested in the same experiment, the antibodies were added sequentially to the cells at room temperature and incubated for 30 minutes each (incubation for 15 minutes at 37° C. produced the same results), and then the cells were incubated at 37° C. […] After incubation with the antibody or antibodies, cells were uniformly resuspended and then incubated at 37° C. for 4 to 24 hours. Aggregation scoring was done with an inverted microscope. In each experiment, the efficacy of the PMA stimulation was checked in parallel by stimulating Raji cells with an equal amount of PMA and determining the amount of aggregation blockable by monoclonal antibodies to CD18, CD11 a, and ICAM-1 molecules.
To confirm that aggregation was induced by the anti-ICAM-R antibodies ICR-2.1, ICR-1.1, and ICR-3.1 the aggregation assays were performed using both the whole immunoglobulin (ICR-1.1-Ig) and Fab′ fragments (ICR-1.1-Fab′) purified from the same anti-ICAM-R monoclonal antibody (ICR-1.1). […]

[2] = test system: resting PBLs; test: T cell receptor induced tyrosine phosphorylation after pretreatment
Experimental: Briefly, resting PBLs were isolated and treated with ICR-1.1 or isotype matched control antibody as described above in Section I. After the cells were removed from antibody, they were washed one time in PBS, resuspended in PBS to a concentration of 1×10^6 cells/ml, and either treated or not treated with antisera to the T cell receptor (G19-4) for 2 minutes at 37° C. The cells were then spun down and lysed in boiling 2×SDS-sample buffer, boiled a further 5 minutes and resolved on 10% SDS-PAGE. Proteins were transferred to nitrocellulose and blotted with the 4G10 anti-phosphotyrosine antibody as described. […] This is consistent with the result that CD69 upregulation in these cells is also normal (Section L above), since CD69 expression requires PLC-gamma stimulated PKC activity and PLC-gamma activation requires tyrosine phosphorylation.

[3] = test system: PBMC; test: PBMC proliferation with or without rIL-2; details: immobilized antibody 10 μg/well; with or without rIL-2 10 units/ml; 3 days
Experimental: Ten μg of ICAM-R monoclonal antibodies ICR-1.1 or ICR-4.2 (or control IgG1 and IgG2) antibodies) in PBS were added per well of 96-well flat bottom tissue culture plates and the plates were incubated for 3-4 hours at 37° C. in a 5% CO2 incubator. After incubation, each well was rinsed 3 times with PBS and freshly obtained PBL were added to a final concentration of 2×10^5 cells/well in a volume of 200 μl. Ten units/ml human recombinant IL-2 (Genzyme, Boston, Mass.) was then added to selected wells. The plates were incubated for a total of 3 days at 37° C. in a 5% CO2 incubator. ^3H-thymidine incorporation by the PMBC was determined as described earlier in this example. […] Positive controls for lymphocyte proliferation included immobilized anti-CD3 and anti-LFA-1 (60.3) monclonal antibodies.

[4] = test system: CD4+ CD45RO+ / CD45RA+ T cells and plastic adherent cells; test: SEA proliferation of memory or resting T cells with accessory cells; details: immobilized antibody 3 hours
Description: Because both T cells and accessory cells express high levels of ICAM-R, the inhibition of cell-cell contact dependent T cell activation during the response to SEA by ICR-1.1 could be mediated by ICR-1.1 binding to T cells, accessory cells or both. Additionally, because ICAM-R and ICAM-1 differ markedly in their expression on nonactivated T cells, it is possible that anti-ICAM-1 and anti-ICAM-R may inhibit the SEA response by targeting T cell subsets in different states of activation. Because the role of ICAM-R may differ in naive and memory cells, the ability of anti-ICAM-R antibodies to inhibit SEA induced proliferation of CD4^+ CD45RO^+ (“memory”) cells, or CD4^+ CD45RA^+ (“resting”) cells was tested. […] nonadherent PBMC (10^7 cells/ml) were incubated for 1 hour at 4° C. with a cocktail of antibodies (1μg/ml each) containing anti-CD8, anti-CD19, anti-CD11b, anti-HLA-DR (Becton Dickinson) and either anti-CD45RO (Amac) (to obtain CD45RA^+ CD4^+ cells), or anti-CD45RA (Amac) (to obtain CD45RO^+ CD4^+ cells) in coating medium. The cell suspension was washed twice with coating medium to remove unbound antibody and incubated with goat anti-mouse IgG coated magnetic beads. Cells bound to magnetic beads were then removed from the suspension using a strong magnet. […] Two hundred thousand purified memory T cells, resting T cells or plastic adherent cells were incubated on immobilized ICR-1.1, anti-ICAM-1 antibody LB-2 or anti-HLA-I antibody p10.1 (10 μg/ml) (Gerald Nepom, Virginia Mason Research Center, Seattle, Wash.) for 3 hours. The antibody treated memory or resting T cells were removed to clean wells and admixed with 2×10^4 plastic adherent cells. Antibody treated accessory cells were admixed with either untreated memory T cells or untreated resting T-cells. Each reconstituted culture was then stimulated with SEA (10 pg/ml). […]

B1: ICR-1.1: anti-ICAM-R monoclonal antibody, IgG2a, domain 1, ATCC HB 11053 (antibody, V domains shown)
VH: QVQLQQSGAELAKPGASVKMSCKASGYTFTVYWMHWVKQRPGQGLEWIGYINPNTDYTEYNQRFQDKATLTADKSSSTAYMQLSSLTSEDSAVYYCARWGGNSYGLDYWGQGTSVTVSS
VL: QIVLTQSPALMSASPGEKVTMTCSASSSVSYIYWYQQKPRSSPKPWIYLTSNLASGVPARFSGSGSGASYSLTISIMEAEDAATYYCQQWKSIPLTFGAGTKLELK
Aggregation [1]: 3 (50 to 100% cells were in loose clusters) | tyrosine phosphorylation in response to G19-4 after pretreatment [2]: there was an induction of tyrosine phosphorylation in response to G19-4 treatment | PBMC proliferation (3H-thymidine) [3]: did not induce PMBC proliferation even in the presence of rIL2 | CD45RA+ cell proliferation, pretreatment of adherent cells [4]: modest inhibition of CD45RA^+ cell proliferation | SEA response, pretreatment of CD45RA+ T cells (FIG. 14) [4]: did not affect SEA responses | SEA proliferation, pretreatment of T cells or accessory cells (FIG. 13) ([4]; versus p10.1 control): blocked proliferative responses to SEA
